# Experimental data: the DeepSol protein solubility set
# Experiment: soluble on expression in E. coli; label from the status in PepcDB or PDB records
row,Sequence,soluble on expression in E. coli
1,GSMTEETHPDDDSYIVRVKAVVMTRDDSSGGWFPQEGGGISRVGVCKVMHPEGNGRSGFLIHGERQKDKLVVLECYVRKDLVYTKANPTFHHWKVDNRKFGLTFQSPADARAFDRGVRKAIEDLIE,soluble
2,GSPEFMDDIFTQCREGNAVAVRLWLDNTENDLNQGDDHGFSPLHWACREGRSAVVEMLIMRGARINVMNRGDDTPLHLAASHGHRDIVQKLLQYKADINAVNEHGNVPLHYACFWGQDQVAEDLVANGALVSICNKYGEMPVDKAKAPLRELLRERAEKMGQNLNRIPYKDTFWKGTTR,soluble
3,GSQQGKFDTKGIESTDEAKMSFLVTLNNVEVCSENISTLKKTLESDCTKLFSQGIGGEQAQAKFDSCLSDLAAVSNKFRDLLQEGLTELNSTAIKPQVQPWINSFFSVSHNIEEEEFNDYEANDPWVQQFILNLEQQMAEFKASLSPVIYDSLTGLMTSLVAVELEKVVLKSTFNRLGGLQFDKELRSLIAYLTTVTTWTIRDKFARLSQMATILNLERVTEILDYWGPNSGPLTWRLTPAEVRQVLALRIDFRSEDIKRLRL,soluble
4,GSRVALVTGANRGIGLAIARELCRQFSGDVVLTARDVARGQAAVQQLQAEGLSPRFHQLDIDDLQSIRALRDFLRKEYGGLNVLVNNAAVAFKSDDPMPFDIKAEMTLKTNFFATRNMCNELLPIMKPHGRVVNISSLQCLRAFENCSEDLQERFHSETLTEGDLVDLMKKFVEDTKNEVHEREGWPNSPYGVSKLGVTVLSRILARRLDEKRKADRILVNACCPGPVKTDMDGKDSIRTVEEGAETPVYLALLPPDATEPQGQLVHDKVVQNW,soluble
5,GSSGSSGVSSQETQGGPLAPMTGTIEKVFVKAGDKVKAGDSLMVMIAMKMEHTIKSPKDGTVKKVFYREGAQANRHTPLVEFEEEESDKRESESGPSSG,soluble
6,GTKQKMRTVFSQAQLCALKDRFQKQKYLSLQQMQELSSILNLSYKQVKTWFQNQRMKCKRWQ,soluble
7,GTQPTFGFTVNWKFSESTTVFTGQCFIDRNGKEVLKTMWLLRSSVNDIGDDWKATRVGINIFTRLRTQKEGGSGGSARKCSLTGKWTNDLGSNMTIGAVNSRGEFTGTYITAVTATSNEIKESPLHGTQNTINKSGGSTTVFTGQCFIDRNGKEVLKTMWLLRSSVNDIGDDWKATRVGINIFTRLRTQKEGGSGGSARKCSLTGKWTNDLGSNMTIGAVNSRGEFTGTYITAVTATSNEIKESPLHGTQNTINKRTQPTFGFTVNWKFSE,soluble
8,HDFASWVSGDSMEPKYHNGSVTLIRETGFDYDGAVYAVVCNSQTYIKRVYLEAEGLRLKYKDIFISYDEDPRVVRIIIGNFIPL,not soluble
9,HDTRKIIAKQLGPHTYLVSGRMEIDDVNERFGLSLPESDDYLTVAGFILNSHQNIPQANEVVEIAPYTFTILRSSSTKIELVKMSIDD,not soluble
10,HEHPTSAGGDGGAGTGAVGTHDGSAAAAAAAAALPSISGARGHAGPEGGHDNDMGGMDASGGGGGGGYGRLPGLAAQSSMASVDGDEASLPPIANLSLGKANMTGSTVGGAAHASTRRSTLNTYYEPGAGGGGGTGGAGGGGGGAGPGPAGYGKVAKAAAVGGAGSVAGGGGVVGGAGVGGGGAVGSGTVGRRQSVGVVVGKYGSVNKQASQGHGGGGPGVAGAAGMAVTGGHAGGGVGGGGGGAVGVGGVGVNKYKANVGKTNSKYISPYSLRQLAG,not soluble
11,HHHHHHDITFRNIRFRYKPDSPVILDNINLSIKQGEVIGIVGRSGSGKSTLTKLIQRFYIPENGQVLIDGHDLALADPNWLRRQVGVVLQDNVLLNRSIIDNISLANPGMSVEKVIYAAKLAGAHDFISELREGYNTIVGEQGAGLSGGQRQRIAIARALVNNPKILIFDEATSALDYESEHVIMRNMHKICKGRTVIIIAHRLSTVKNADRIIVMEKGKIVEQGKHKELLSEPESLYSYLYQLQSD,soluble
12,HHHHHHGILMMANRMILNETAWFGRGAVGALTDEVKRRGYQKALIVTDKTLVQCGVVAKVTDKMDAAGLAWAIYDGVVPNPTITVVKEGLGVFQNSGADYLIAIGGGSPQDTCKAIGIISNNPEFADVRSLEGLSPTNKPSVPILAIPTTAGTAAEVTINYVITDEEKRRKFVCVDPHDIPQVAFIDADMMDGMPPALKAATGVDALTHAIEGYITRGAWALTDALHIKAIEIIAGALRGSVAGDKDAGEEMALGQYVAGMGFSNVGLGLVHGMAHPLGAFYNTPHGVANAILLPHVMRYNADFTGEKYRDIARVMGVKVEGMSLEEARNAAVEAVFALNRDVGIPPHLRDVGVRKEDIPALAQAALDDVCTGGNPREATLEDIVELYHTAW,soluble
13,HHHHHHGSQEAPHFKPGEDPRQPHQEWKLIENMSDEFEGKKIDEKKWQISGQGWIGRAPGLFLAENISLNNGSLQITTTMLPEPIVKNNKTYTHGGGYVGSRNGMTYGYYECEMKANKTFMSSTFWLINEGKDRLGCDKRTTELDIQESVGQITNDADWMKYFDQTMNSNTHSRNIPEGCEYEKGSSKGKAELGGKAYEDFHVYGVWWKSKDEIIFFLDGKMQSKVTPPADFDIEMYLRMVVETYDWNPVPKDGGMTGSKEDRTTTYNWVRSWQLVDSKN,soluble
14,HHHHHHKVDLGGFAGLFDLKAAGFKDPLLASGTDGVGTKLKIAQLCNKHDTIGQDLVAMCVNDILAQGAEPLFFLDYFSCGKLDLSVTEAVVAGIAKACGKAGCALLGGETAEMPDMYPPGEYDLAGFAVGAMERDQKLPHLERITEGDVVVGIASSGLHSNGFSLVRKIVAKSSLQYSSPAPDGCGDQTLGDLLLTPTRIYSHSLLPVLRSGHVKAFAHITGGGLLENIPRVLPEKLGVDLDAQTWRIPRVFSWLQQEGHLSEEEMARTFNCGVGAVLVVSKEQTEQILRGIQQHKEEAWVIGSVVARAEGSPRVKVKNLIESMQINGSVLKN,soluble
15,HHHHHHSSGLVPRGSGMKETAAAKFERQHMDSPDLGTDDDDKASSSANECISVKGRIYSILKQIGSGGSSKVFQVLNEKKQIYAIKYVNLEEADNQTLDSYRNEIAYLNKLQQHSDKIIRLYDYEITDQYIYMVMECGNIDLNSWLKKKKSIDPWERKSYWKNMLEAVHTIHQHGIVHSDLKPANFLIVDGMLKLIDFGIANQMQPDTTSVVKDSQVGAVNYMPPEAIKDMSSSRENGKSKSKISPKSDVWSLGCILYYMTYGKTPFQQIINQISKLHAIIDPNHEIEFPDIPEKDLQDVLKCCLKRDPKQRISIPELLAHPYVQIQTHPVNQMAKGTTEEMKYVLGQLVGLNSPNSILKAAKTLYEHYSGGESHNSSSSKTFEKKRGKK,soluble
16,HHHSSGLTPRGSQMKKIAFGCDHVGFILKHEIVAHLVERGVEVIDKGTWSSERTDYPHYASQVALAVAGGEVDGGILICGTGVGISIAANKFAGIRAVVCSEPYSAQLSRQHNDTNVLAFGSRVVGLELAKMIVDAWLGAQYEGGRHQQRVEAITAIEQRRN,soluble

row,Sequence,soluble on expression in E. coli
1,HKGTLYVVATPLGNLDDMTFRAVNTLRNAGAIACEDTRRTSILLKHFGIEGKRLVSYHSFNEERAVRQVIELLEEGSDVALVTDAGTPAISDPGYTMASAAHAAGLPVV,not soluble
2,HKPWRAEYAKSSRSSCKTCKSVINKENFRLGKLVQSTHFDGIMPMWNHASCILKKTKQIKSVDDVEGIESLRWEDQQKIRKYVESGAGSNTSTSTGTSTSS,soluble
3,HKRPVPAKRYDNVTILFSGIVGFNAFCSKHASGEGAMKIVNLLNDLYTRFDTLTDSRKNPFVYKVETVGDKYMTVSGLPEPCIHHARSICHLALDMMEIAGQVQVDGESVQITIGIHTGEVVTGVIGQRMPRYCLFGNTVNLTSRTETTGEKGKINVSEYTYRCLMSPENSDPQFHLEHRGPVSMKGKKEPMQVWFLSRKNTGTEETKQDDDAENLYFQ,soluble
4,HLEGLGASVLDFTGFAQKFGTVLSYIRLGAKPDTLHQVRIDTGGADAVIGCDMVVSSAPKASAHYRNGTKVVLNRAEMPTGDLVLHRDAQLKIDTREAAIRAVVGTENVSGFDANQTAEQLLGDAVFANVMMLGYAWQQGLVPVSRSALAQAILLNGVAVEKNRLAFAAGRALAADPARLDVESASPE,not soluble
5,HMSMYAVNAGIAKTTVQILVDHIAHSGWLDEAASAVLLDIVRTPISPELKPVGQDGNISQKTEDLVGPYELHDFFIYHFLHNEYKPSKIYYLAGVAFKGIYTKAEIKKWMMVFFRRFFAQQYKRNCMPDGPKVSCISLSPRGAWRMASDASSALWLDEIAKFETD,not soluble
6,HPECKKSVEDVNNDLKKFVSINGKKTVTEFHRELGKIMWNNVGMARSEESCKEALKVIPQIREEFWKNVKVSGSGAEFNQQLENAGRVADFLEFAELMTLDALHRNESCGGHFRVEHQMPD,not soluble
7,HPSIFAATDGHSSRLDVTMGMSYNNRFFASLMYRPTQAVGVSLGMQLGKFYAGYAFEWPTSVLAKASWGSHELLVSYSFPLSNTKNRDAKYKSIRFL,not soluble
8,HSDPARRGQLSVCDSISEWVTAADKKTAVDMSGGTVTVLEKVPVSKGQLKQYFYETKCNPMGYTKEGCRGIDKRHWNSQCRTTQSYVRALTMDSKKRIGWRFIRIDTSCVCTLTIKRGR,soluble
9,HTERVGWLSGRIAEEMGMSEVFVTEIQFAAPLHDIGKIGIPDRILLKPGILTPEEFEIMKQHTTIGFRILSRSNSPILQLGAEIALTHHERWDGSGYPRGLKEREIPISGLIVAVADSFDA,not soluble
10,HVYILGKIPSPLTLIKAFADVRPSFVIMVPLIIEKLYHKAIAPKIKTPLIKFLLRLPVLKKVIHKSIRSKLIESFGGNFRQIIIGGAALNDEVAHFLYRIGFPLTVG,not soluble
11,IFEDEEDQITKVDSLKKEGNNFFANGEFEKANEKYQEAIASCPPTSTEVQSILLSNSAAALIKLRKWESAVEAASKSIEIGATNEKALERRAFAYSNMSEKYENSIEDYKQLQESLPKRRVELDRKIAEINEKINNRNEAMKADVMEKLKGFGNFCLSPFGLSTDSFEMVPNGNGGFSVQMKGATNKQEGAS,not soluble
12,IGKVGYRLGFNLSDYKSKITKYDDNATTKLLSSFYPGQVMGEIWGYIADGYYSVDDFEDTSSWKLKEGITSINGYNVRPGDVKFKNLRDDESSTNVITSGDNTFDNPGDRKVIGNTTPRYQYGINLGANYAGFDLNVILQGTGKRDYWISNVLTFPMNGDNFIPLFDGLSDYWMPKDPDNGDWTAVNPNAKYPRLYGNRGNSGSNLRQSDKYLSDASYLRIKNITLSYNLPKKWLSQIFLSQMKAFVSVENVATFTSLPSGIDPERIEWNYPAFRTVSFGINITL,not soluble
13,IHNSRWIMTPEVKEDCKMRLFCLPFAGGGALAYRSWCRYMPPEIELCAVQLPGRENRIKDEKFYDINLLIDELVLQILPYLDKPFALYGHSMGGLISFELARRIRKVKGLTPKILFFSGSKAPQLYDHTKDISHLPDELFLKAIKSFNGMPDMFWQDRELIEFKLPTLRADFSVLEGYNYYNEEPLECPISALCGENDKIISKKDMEALALQTKNQFKLRMFDGDHFFINTCRSKVLKSIIEDLN,not soluble
14,IIGGHEAKPHSRPYMAYLQIMDEYSGSKKCGGFLIREDFVLTAAHCSGSKIQVTLGAHNIKEQEKMQQIIPVVKIIPHPAYNSKTISNDIMLLKLKSKAKRSSAVKPLNLPRRNVKVKPGDVCYVAGWGKLGPMGKYSDTLQEVELTVQEDQKCESYLKNYFDKANEICAGDPKIKRASFRGDSGGPLVCKKVAAGIVSYGQNDGSTPRAFTKVSTFLSWIKKTMKKS,soluble
15,IKELKMSKDEIKREYKEMEGSPEIKSKRRQFHQEIQSRNMRENVKRSSVVVAAATHIAIGILYKRGETPLPLVTFKYTDAQVQTVRKIAEEEGVPILQRIPLARALYWDALVDHYIPAEQIEATAEVLRWLERQNIEKQHSEML,soluble
